Measurements as given in the supplement of paper PMC10065799, “High-throughput profiling of sequence recognition by tyrosine kinases and SH2 domains using bacterial peptide display” (eLife, 2023).

What was measured:
[1] = system: AncSZ; test: phosphorylation enrichment, bacterial display (enrichment ratio); higher = better substrate or ligand; peptides without Tyr show the background
[2] = molecular target: EPHB1 (UniProt P54762); test: as above
[3] = molecular target: EPHB2 (UniProt P29323); test: as above
[4] = molecular target: FGFR1 (UniProt P11362); test: as above
Sequence of FGFR1 (P11362 whole entry, looked up): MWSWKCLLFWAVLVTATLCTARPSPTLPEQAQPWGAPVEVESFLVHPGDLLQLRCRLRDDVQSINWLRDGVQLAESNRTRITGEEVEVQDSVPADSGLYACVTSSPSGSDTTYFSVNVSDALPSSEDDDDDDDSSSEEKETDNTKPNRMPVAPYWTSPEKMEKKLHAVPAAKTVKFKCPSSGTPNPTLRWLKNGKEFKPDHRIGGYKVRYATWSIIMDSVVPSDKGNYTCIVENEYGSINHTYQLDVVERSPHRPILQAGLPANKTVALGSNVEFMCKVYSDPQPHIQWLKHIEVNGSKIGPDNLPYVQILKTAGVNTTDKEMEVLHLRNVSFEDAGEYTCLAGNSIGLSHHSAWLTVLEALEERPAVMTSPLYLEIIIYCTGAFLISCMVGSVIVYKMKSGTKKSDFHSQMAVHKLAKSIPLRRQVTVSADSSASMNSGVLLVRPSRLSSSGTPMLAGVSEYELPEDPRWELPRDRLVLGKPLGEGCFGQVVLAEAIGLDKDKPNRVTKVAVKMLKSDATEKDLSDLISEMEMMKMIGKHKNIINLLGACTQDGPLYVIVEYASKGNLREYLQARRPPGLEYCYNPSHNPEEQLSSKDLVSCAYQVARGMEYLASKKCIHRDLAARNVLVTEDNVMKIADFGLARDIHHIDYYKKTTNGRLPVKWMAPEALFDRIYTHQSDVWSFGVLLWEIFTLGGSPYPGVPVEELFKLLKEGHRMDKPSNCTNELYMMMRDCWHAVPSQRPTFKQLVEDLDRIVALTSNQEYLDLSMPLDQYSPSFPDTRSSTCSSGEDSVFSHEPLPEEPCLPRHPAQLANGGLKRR

[5] = molecular target: FGFR3 (UniProt P22607); test: as above
Sequence of FGFR3 (P22607 whole entry, looked up): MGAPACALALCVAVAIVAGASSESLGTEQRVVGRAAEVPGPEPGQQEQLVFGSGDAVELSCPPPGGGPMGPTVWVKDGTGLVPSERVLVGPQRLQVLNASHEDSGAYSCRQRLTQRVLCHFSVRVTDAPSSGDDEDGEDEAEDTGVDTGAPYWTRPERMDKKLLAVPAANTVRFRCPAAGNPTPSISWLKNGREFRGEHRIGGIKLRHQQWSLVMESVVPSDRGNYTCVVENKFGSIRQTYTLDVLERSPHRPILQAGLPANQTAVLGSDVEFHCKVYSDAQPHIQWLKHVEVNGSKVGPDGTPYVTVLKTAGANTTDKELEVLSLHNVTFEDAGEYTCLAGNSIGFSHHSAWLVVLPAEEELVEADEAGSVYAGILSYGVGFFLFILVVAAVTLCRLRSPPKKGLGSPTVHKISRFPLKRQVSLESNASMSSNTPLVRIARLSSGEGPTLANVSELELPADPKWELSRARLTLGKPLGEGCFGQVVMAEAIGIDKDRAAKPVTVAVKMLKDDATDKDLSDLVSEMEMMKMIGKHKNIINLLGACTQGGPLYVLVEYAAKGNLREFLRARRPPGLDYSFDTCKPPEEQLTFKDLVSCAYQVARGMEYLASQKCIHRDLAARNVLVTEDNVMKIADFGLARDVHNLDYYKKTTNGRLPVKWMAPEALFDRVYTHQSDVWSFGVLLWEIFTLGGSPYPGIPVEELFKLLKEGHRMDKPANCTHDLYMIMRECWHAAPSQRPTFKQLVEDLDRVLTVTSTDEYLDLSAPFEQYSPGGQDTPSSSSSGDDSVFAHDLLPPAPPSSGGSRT

[6] = system: Fer (mouse); test: as above
[7] = molecular target: Fes (UniProt P07332); test: as above
[8] = molecular target: Fyn (UniProt P06241); test: as above
Sequence of Fyn (P06241 whole entry, looked up): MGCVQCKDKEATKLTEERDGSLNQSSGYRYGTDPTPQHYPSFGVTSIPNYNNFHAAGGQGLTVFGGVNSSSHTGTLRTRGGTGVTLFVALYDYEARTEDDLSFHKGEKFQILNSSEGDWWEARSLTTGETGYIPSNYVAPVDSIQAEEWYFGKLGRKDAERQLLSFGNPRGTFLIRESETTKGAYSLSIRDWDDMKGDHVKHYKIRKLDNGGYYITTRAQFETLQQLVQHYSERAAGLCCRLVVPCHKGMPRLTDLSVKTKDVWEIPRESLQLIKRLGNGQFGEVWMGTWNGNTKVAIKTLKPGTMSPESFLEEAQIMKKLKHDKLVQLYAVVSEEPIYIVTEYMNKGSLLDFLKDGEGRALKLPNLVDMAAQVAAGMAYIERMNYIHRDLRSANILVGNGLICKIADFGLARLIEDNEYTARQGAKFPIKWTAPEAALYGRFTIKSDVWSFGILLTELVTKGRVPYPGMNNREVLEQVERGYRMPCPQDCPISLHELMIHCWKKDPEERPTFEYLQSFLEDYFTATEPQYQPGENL

[9] = molecular target: Hck (UniProt P08631); test: as above
Sequence of Hck (P08631 whole entry, looked up): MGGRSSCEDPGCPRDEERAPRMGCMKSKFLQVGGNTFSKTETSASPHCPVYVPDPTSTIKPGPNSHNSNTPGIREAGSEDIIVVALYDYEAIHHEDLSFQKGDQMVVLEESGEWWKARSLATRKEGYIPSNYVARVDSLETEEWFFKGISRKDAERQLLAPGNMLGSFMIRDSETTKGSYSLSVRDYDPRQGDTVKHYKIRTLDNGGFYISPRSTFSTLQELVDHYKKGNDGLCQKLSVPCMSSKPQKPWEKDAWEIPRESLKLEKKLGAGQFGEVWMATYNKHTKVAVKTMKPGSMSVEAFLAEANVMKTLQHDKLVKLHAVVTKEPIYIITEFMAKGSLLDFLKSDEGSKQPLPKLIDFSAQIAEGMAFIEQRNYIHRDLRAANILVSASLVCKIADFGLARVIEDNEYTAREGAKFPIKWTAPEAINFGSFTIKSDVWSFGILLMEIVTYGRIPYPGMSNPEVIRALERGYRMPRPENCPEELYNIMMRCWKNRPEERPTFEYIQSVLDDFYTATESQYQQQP

[10] = molecular target: Jak2 (UniProt O60674); test: as above
Sequence of Jak2 (O60674 whole entry, looked up): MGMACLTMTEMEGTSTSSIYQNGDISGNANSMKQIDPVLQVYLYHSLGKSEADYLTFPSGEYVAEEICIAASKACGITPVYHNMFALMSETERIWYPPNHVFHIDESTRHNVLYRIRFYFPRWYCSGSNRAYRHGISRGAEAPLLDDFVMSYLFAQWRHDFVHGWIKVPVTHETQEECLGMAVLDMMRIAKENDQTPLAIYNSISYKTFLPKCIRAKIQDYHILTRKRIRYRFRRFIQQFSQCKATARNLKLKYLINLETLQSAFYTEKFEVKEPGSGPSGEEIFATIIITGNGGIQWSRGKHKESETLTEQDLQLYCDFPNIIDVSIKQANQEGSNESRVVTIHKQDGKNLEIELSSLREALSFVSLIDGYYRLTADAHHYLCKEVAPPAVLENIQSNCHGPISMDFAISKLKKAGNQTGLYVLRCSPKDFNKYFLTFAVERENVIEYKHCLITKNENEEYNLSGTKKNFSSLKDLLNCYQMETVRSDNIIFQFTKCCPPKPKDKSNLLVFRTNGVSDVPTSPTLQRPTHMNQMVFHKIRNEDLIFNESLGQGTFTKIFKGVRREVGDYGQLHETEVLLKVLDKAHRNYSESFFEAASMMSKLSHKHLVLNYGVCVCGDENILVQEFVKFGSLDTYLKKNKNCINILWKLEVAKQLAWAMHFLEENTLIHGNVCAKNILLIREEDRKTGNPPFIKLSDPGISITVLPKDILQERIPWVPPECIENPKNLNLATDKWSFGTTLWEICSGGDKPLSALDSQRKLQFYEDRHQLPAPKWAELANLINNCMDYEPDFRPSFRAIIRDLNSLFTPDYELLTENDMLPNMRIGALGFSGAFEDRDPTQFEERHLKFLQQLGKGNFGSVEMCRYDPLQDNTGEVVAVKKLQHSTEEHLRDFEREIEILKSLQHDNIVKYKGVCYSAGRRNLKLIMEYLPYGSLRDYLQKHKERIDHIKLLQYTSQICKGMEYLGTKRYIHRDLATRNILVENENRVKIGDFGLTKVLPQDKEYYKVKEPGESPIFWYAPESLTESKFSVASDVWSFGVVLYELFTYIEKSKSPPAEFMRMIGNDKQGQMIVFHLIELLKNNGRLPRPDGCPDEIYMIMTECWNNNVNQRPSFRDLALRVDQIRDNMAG

[11] = molecular target: MERTK (UniProt Q12866); test: as above
[12] = system: c-Abl (mouse); test: as above
[13] = system: c-Src; test: as above
[14] = molecular target: Grb2 SH2 (UniProt P62993); test: SH2 binding enrichment of the phosphorylated peptide, bacterial display (enrichment ratio); higher = better substrate or ligand; peptides without Tyr show the background
Sequence of Grb2 SH2 (P62993 whole entry, looked up): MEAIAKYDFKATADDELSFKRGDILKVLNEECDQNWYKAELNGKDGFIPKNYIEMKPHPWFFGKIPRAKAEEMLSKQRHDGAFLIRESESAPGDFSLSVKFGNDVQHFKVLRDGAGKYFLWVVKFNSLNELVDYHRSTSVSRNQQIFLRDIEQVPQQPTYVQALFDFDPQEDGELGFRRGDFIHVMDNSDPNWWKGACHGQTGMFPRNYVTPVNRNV

[15] = molecular target: SHP2-C SH2; test: as above
[16] = molecular target: c-Src SH2; test: as above
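Wherever SH2 binding enrichment of the phosphorylated peptide, bacterial display is given: peptide library displayed on the E. coli surface as eCPX fusions, selected cells deep-sequenced, score is each peptide's frequency after selection divided by its frequency in the input.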
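Wherever phosphorylation enrichment, bacterial display is given: 11-residue human phosphosite peptides and single-mutation variants displayed on the E. coli surface, counted by deep sequencing, each peptide's frequency after selection divided by its frequency in the unselected input library; frequency after pTyr selection over input frequency; kinase dosed for 20-30% of maximal phosphorylation in three min.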

Sequence of EPHB1 (P54762 whole entry, looked up): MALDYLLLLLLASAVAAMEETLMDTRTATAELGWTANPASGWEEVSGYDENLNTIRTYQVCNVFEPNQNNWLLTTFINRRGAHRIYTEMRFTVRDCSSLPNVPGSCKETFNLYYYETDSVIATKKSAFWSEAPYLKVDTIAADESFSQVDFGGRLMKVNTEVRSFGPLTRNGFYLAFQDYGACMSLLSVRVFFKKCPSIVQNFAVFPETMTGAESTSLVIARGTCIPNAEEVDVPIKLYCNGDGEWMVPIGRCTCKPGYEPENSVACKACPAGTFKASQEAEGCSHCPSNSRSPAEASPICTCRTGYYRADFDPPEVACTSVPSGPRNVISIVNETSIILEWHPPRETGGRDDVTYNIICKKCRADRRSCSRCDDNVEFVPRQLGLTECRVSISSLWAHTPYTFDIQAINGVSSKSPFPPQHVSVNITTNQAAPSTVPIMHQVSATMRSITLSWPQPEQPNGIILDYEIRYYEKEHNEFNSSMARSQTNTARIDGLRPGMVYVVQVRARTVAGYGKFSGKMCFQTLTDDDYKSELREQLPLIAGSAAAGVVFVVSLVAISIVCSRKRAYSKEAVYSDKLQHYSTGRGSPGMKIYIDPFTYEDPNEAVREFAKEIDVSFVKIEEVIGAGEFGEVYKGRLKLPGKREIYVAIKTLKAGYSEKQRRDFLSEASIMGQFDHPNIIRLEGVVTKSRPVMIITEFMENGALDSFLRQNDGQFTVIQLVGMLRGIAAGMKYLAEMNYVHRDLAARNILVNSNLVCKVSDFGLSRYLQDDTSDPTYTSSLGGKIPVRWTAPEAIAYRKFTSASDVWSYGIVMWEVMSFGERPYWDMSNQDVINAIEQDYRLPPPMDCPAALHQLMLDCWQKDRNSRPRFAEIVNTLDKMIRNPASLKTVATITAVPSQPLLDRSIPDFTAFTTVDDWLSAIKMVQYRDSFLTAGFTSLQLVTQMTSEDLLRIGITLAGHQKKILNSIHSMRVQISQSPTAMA

Sequence | phosphorylation enrichment [1] | phosphorylation enrichment [2] | phosphorylation enrichment [3] | phosphorylation enrichment [4] | phosphorylation enrichment [5] | phosphorylation enrichment [6] | phosphorylation enrichment [7] | phosphorylation enrichment [8] | phosphorylation enrichment [9] | phosphorylation enrichment [10] | phosphorylation enrichment [11] | phosphorylation enrichment [12] | phosphorylation enrichment [13] | SH2 binding enrichment [14] | SH2 binding enrichment [15] | SH2 binding enrichment [16]
KVFRVYQGQQP [MUTYH_Y494] | 0.569 | 0.308 | 0.415 | 0.439 | 0.494 | 0.37 | 0.608 | 0.374 | 0.388 | 0.484 | 0.344 | 0.413 | 0.375 | 0.849 | 0.55 | 0.52
KVGNEYVNKGQ [MYH7_Y410_T412N] | 0.581 | 0.337 | 0.553 | 0.492 | 0.391 | 0.404 | 0.541 | 0.412 | 0.327 | 0.424 | 0.373 | 0.422 | 0.428 | 2.24 | 0.706 | 0.444
KVMANYVYKAG [MAML2_Y513_M514V] | 0.465 | 0.395 | 0.37 | 0.398 | 0.452 | 0.358 | 0.551 | 0.339 | 0.386 | 0.514 | 0.361 | 0.453 | 0.355 | 0.874 | 1.28 | 0.723
KVNKIYFPDFI [LIG3_Y767_YF] | 0.799 | 0.427 | 0.399 | 1.24 | 1.26 | 0.4 | 0.855 | 0.455 | 0.543 | 0.712 | 0.473 | 0.566 | 0.478 | 0.946 | 0.844 | 0.692
KVPELYEIHTE [BCR_Y554_K558T] | 1.19 | 0.94 | 0.945 | 0.578 | 0.68 | 0.74 | 0.984 | 0.629 | 0.745 | 0.827 | 0.508 | 0.712 | 0.546 | 0.969 | 0.696 | 0.525
KVVQEYERVII [NPHS2_Y131] | 1.09 | 3.17 | 2.79 | 0.633 | 0.719 | 3.84 | 0.956 | 0.485 | 0.563 | 0.801 | 0.435 | 0.757 | 0.457 | 0.811 | 0.653 | 0.564
KYACSYTPVKA [FLNB_Y708_T703K] | 0.689 | 0.473 | 0.417 | 0.576 | 0.697 | 0.438 | 0.758 | 0.387 | 0.483 | 0.598 | 0.414 | 0.557 | 0.432 | 1.05 | 2.91 | 1.28
KYLENYLNRLL [PLD2_Y169] | 0.832 | 0.523 | 0.483 | 0.459 | 0.577 | 0.609 | 0.989 | 0.45 | 0.414 | 0.859 | 0.478 | 0.809 | 0.475 | 1.46 | 1.44 | 1.27
LAAAKYKLNVD [SMARCA2_Y1190] | 0.444 | 0.426 | 0.336 | 0.322 | 0.556 | 0.52 | 0.766 | 0.262 | 0.181 | 0.42 | 0.309 | 0.593 | 0.489 | 0.812 | 1.17 | 0.386
LAGRYYALRSM [CKB_Y174_K177R] | 0.807 | 0.701 | 0.688 | 0.751 | 0.763 | 0.5 | 0.79 | 0.524 | 0.708 | 1.66 | 3.63 | 0.684 | 0.581 | 1.38 | 2.86 | 1.73
LDLPGYCPLRE [CCDC116_Y291] | 1.55 | 1.09 | 0.668 | 0.916 | 1.36 | 1.09 | 1.97 | 0.96 | 1.1 | 1.64 | 0.767 | 1.28 | 0.773 | 0.754 | 0.736 | 0.611
LDYNEYFRDLN [HPRT1_Y198] | 1.81 | 0.741 | 0.753 | 1.39 | 1.28 | 0.555 | 1.33 | 0.828 | 0.661 | 1.68 | 0.519 | 1.13 | 0.649 | 0.727 | 0.861 | 0.645
LEFNEYFRDLN [HPRT1_Y198_D194E_YF] | 2.14 | 1.21 | 1.15 | 1.09 | 1.95 | 0.769 | 1.66 | 0.992 | 0.828 | 1.25 | 0.795 | 0.805 | 0.809 | 0.926 | 0.743 | 0.488
LEIETCRRLLD [KRT12_Y429_Y429C] | 1.2 | 0.939 | 0.913 | 0.722 | 1.2 | 0.474 | 1.33 | 0.635 | 0.759 | 1.07 | 0.411 | 1.01 | 0.415 | 0.883 | 0.64 | 0.648
LEQDEYALHSH [HADHB_Y244_R247H] | 1.45 | 0.882 | 0.669 | 0.847 | 0.805 | 0.642 | 1.24 | 0.887 | 0.598 | 1.2 | 0.578 | 1.1 | 0.665 | 0.744 | 0.561 | 0.452
LERYIYNRQEF [HLA-DPB1_Y59_E62Q] | 1.05 | 0.475 | 0.856 | 0.624 | 0.605 | 0.772 | 1.01 | 0.819 | 1.32 | 0.449 | 0.413 | 0.415 | 1.24 | 0.812 | 0.703 | 0.477
LEVPLYKNGVK [CPS1_Y1069_A1065E] | 1.28 | 0.715 | 0.43 | 0.944 | 1.11 | 0.66 | 0.997 | 0.759 | 0.655 | 0.643 | 0.625 | 0.693 | 0.321 | 0.845 | 0.491 | 0.472
LFEDRYLLGPS [ASS1_Y87_T91P_YF] | 1.07 | 0.857 | 0.872 | 0.679 | 1.12 | 0.634 | 1.42 | 0.793 | 0.804 | 1.73 | 0.58 | 1.07 | 0.689 | 0.965 | 0.515 | 0.552
LFEDRYLLGTS [ASS1_Y87_YF] | 2.21 | 2.81 | 1.98 | 1.26 | 2.45 | 1.12 | 1.8 | 1.29 | 1.12 | 0.885 | 0.863 | 0.41 | 0.258 | 0.918 | 0.537 | 0.529
LFIGQYSGKKE [L1CAM_Y1229_S1224L] | 1.41 | 0.984 | 1.11 | 1.02 | 1.13 | 0.901 | 2.22 | 1.07 | 1.02 | 1.77 | 0.972 | 1.07 | 1.12 | 0.924 | 0.745 | 0.843
LFLACYCIGGG [UBD_Y161] | 1.22 | 0.803 | 1.12 | 0.764 | 1.29 | 0.657 | 2.71 | 0.72 | 0.562 | 1.38 | 0.483 | 0.908 | 0.545 | 1.02 | 1.3 | 0.876
LFMGDYVGRGY [PPP2CA_Y86_D88G] | 1.53 | 2.15 | 1.72 | 1.17 | 1.19 | 0.713 | 1.21 | 1.37 | 1.75 | 2.97 | 0.847 | 0.953 | 1.53 | 0.854 | 0.596 | 0.536
LFSLGYHQSLW [GANAB_Y396_R400L] | 0.827 | 0.627 | 0.702 | 0.51 | 0.786 | 0.474 | 0.986 | 0.475 | 0.475 | 0.7 | 0.535 | 0.666 | 0.42 | 0.98 | 0.59 | 0.61
LGEGSYGKVKE [STK11_Y60] | 1.75 | 1.29 | 0.868 | 1.21 | 0.783 | 0.574 | 1.5 | 0.939 | 0.862 | 1.58 | 0.887 | 1.12 | 0.863 | 0.669 | 0.52 | 0.571
LGIDRYHAIVF [NPSR1_Y147_S143G_YF] | 2.59 | 1.22 | 1.41 | 1.55 | 1.37 | 1.04 | 1.82 | 0.732 | 0.942 | 2.47 | 1.52 | 1.31 | 1.11 | 0.851 | 0.689 | 1.28
LHNLFYQLEAE [PKP2_Y616_S615F] | 2.35 | 1.35 | 1.9 | 1.02 | 1.07 | 1.66 | 2.87 | 8.59 | 2.2 | 2.4 | 1.6 | 2.03 | 10.4 | 1.02 | 0.909 | 0.725
LHSEAYLKYIE [PBRM1_Y1610] | 1.16 | 0.753 | 1.2 | 0.633 | 0.743 | 0.665 | 0.994 | 0.831 | 0.684 | 1.55 | 0.678 | 0.9 | 0.941 | 0.664 | 0.445 | 0.443
LIEQAYDNPHE [PRPF8_Y871] | 1.12 | 0.638 | 0.824 | 0.566 | 0.695 | 0.602 | 1.16 | 0.645 | 0.86 | 0.811 | 0.43 | 0.767 | 0.472 | 0.828 | 0.729 | 5.87
LKALHYMVQTS [SACS_Y3367] | 0.808 | 0.546 | 0.512 | 0.39 | 0.459 | 0.428 | 0.858 | 0.362 | 0.43 | 0.653 | 0.385 | 0.533 | 0.398 | 0.77 | 0.794 | 0.721
